Experimental data from patent US10934559B2, “Hypersensitive ABA receptors” (The Regents of the University of California, priority 2014, dated 2021).
Positions count from the first letter of the chain named. In names and notes the source's numbering stands. Where two headings read alike, the source gives them in different places.

B1: A160V: PYR1 mutant A160V, SEQ ID NO:141; for ITC the cleaved recombinant protein with NH2-terminal QS appendage (protein)
chain: MPSELTPEERSELKNSIAEFHTYQLDPGSCSSLHAQRIHAPPELVWSIVRRFDKPQTYKHFIKSCSVEQNFEMRVGCTRDVIVISGLPANTSTERLDILDDERRVTGFSIIGGEHRLTNYKSVTTVHRFEKENRIWTVVLESYVVDMPEGNSEDDTRMFVDTVVKLNLQKLATVAEAMARNSGDGSGSQVT
modifications: N-terminal QS appendage for ITC; synthetic Arabidopsis PYR1 mutant A160V
B2: I110S: PYR1 mutant I110S, SEQ ID NO:129 (protein)
chain: B1 chain with I110S, V160A
modifications: synthetic Arabidopsis PYR1 mutant I110S
B3: E141C: PYR1 mutant E141C, SEQ ID NO:130 (protein)
chain: B1 chain with E141C, V160A
modifications: synthetic Arabidopsis PYR1 mutant E141C
B4: E141I: PYR1 mutant E141I, SEQ ID NO:131 (protein)
chain: B1 chain with E141I, V160A
modifications: synthetic Arabidopsis PYR1 mutant E141I
B5: E141L: PYR1 mutant E141L, SEQ ID NO:132 (protein)
chain: B1 chain with E141L, V160A
modifications: synthetic Arabidopsis PYR1 mutant E141L
B6: E141M: PYR1 mutant E141M, SEQ ID NO:133 (protein)
chain: B1 chain with E141M, V160A
modifications: synthetic Arabidopsis PYR1 mutant E141M
B7: E141N: PYR1 mutant E141N, SEQ ID NO:134 (protein)
chain: B1 chain with E141N, V160A
modifications: synthetic Arabidopsis PYR1 mutant E141N
B8: E141T: PYR1 mutant E141T, SEQ ID NO:135 (protein)
chain: B1 chain with E141T, V160A
modifications: synthetic Arabidopsis PYR1 mutant E141T
B9: E141V: PYR1 mutant E141V, SEQ ID NO:136 (protein)
chain: B1 chain with E141V, V160A
modifications: synthetic Arabidopsis PYR1 mutant E141V
B10: E141W: PYR1 mutant E141W, SEQ ID NO:137 (protein)
chain: B1 chain with E141W, V160A
modifications: synthetic Arabidopsis PYR1 mutant E141W
B11: E141Y: PYR1 mutant E141Y, SEQ ID NO:138 (protein)
chain: B1 chain with E141Y, V160A
modifications: synthetic Arabidopsis PYR1 mutant E141Y
B12: A160C: PYR1 mutant A160C, SEQ ID NO:139 (protein)
chain: B1 chain with V160C
modifications: synthetic Arabidopsis PYR1 mutant A160C
B13: A160I: PYR1 mutant A160I, SEQ ID NO:140 (protein)
chain: B1 chain with V160I
modifications: synthetic Arabidopsis PYR1 mutant A160I
B14: F61L: PYR1 mutant F61L, SEQ ID NO:124 (protein)
chain: B1 chain with F61L, V160A
modifications: synthetic Arabidopsis PYR1 mutant F61L
B15: F61M: PYR1 mutant F61M, SEQ ID NO:125 (protein)
chain: B1 chain with F61M, V160A
modifications: synthetic Arabidopsis PYR1 mutant F61M
B16: V81I: PYR1 mutant V81I, SEQ ID NO:126 (protein)
chain: B1 chain with V81I, V160A
modifications: synthetic Arabidopsis PYR1 mutant V81I
B17: V81Y: PYR1 mutant V81Y, SEQ ID NO:127 (protein)
chain: B1 chain with V81Y, V160A
modifications: synthetic Arabidopsis PYR1 mutant V81Y
B18: I110C: PYR1 mutant I110C, SEQ ID NO:128 (protein)
chain: B1 chain with I110C, V160A
modifications: synthetic Arabidopsis PYR1 mutant I110C

Key:
HAB1 = assay: PYR1 mutant-HAB1 yeast two-hybrid assay under different ABA concentrations (X-gal staining); type: cell-based; conditions: lowest (+)-ABA concentration giving detectable X-gal staining; S. cerevisiae Y190 with pACT-HAB1; 30° C., 48 hours
Text: The affinity of a receptor for a target ligand is typically determined by non-covalent interactions between ligand-binding residues and the ligand. Mutations in such residues can have negative, positive or neutral effects on the strength of the receptor—ligand interaction. The affinity of a receptor-ligand interaction is intrinsically correlated with the concentration of ligand required to elicit biological effects, with high affinity ligands requiring lower concentrations relative to low affinity ligands. A mutant receptor with increased affinity for a ligand can in some cases elicit greater biological effect relative to a wild type receptor, when both are activated under identical conditions by the same concentration of activating ligand. Thus, mutations that make a receptor hypersensitive to a ligand can be useful for engineering organisms that elicit stronger responses to the ligand relative to wild type. […] Based on these considerations, we set out to systematically establish specific ABA receptor mutations that increase ABA responsiveness. This was done by testing a collection of PYR1 variants with all possible single amino acid substitution mutations in ligand binding residues. Thus we conducted site-saturated mutagenesis of ABA-contacting residues, which we define as those that are within 5A or ABA or ABA-contacting water residues in available X-ray coordinates. This collection of mutants was constructed previously, as described in PCT Application No. PCT/US2012/043121 and Mosquna et al., Proc Natl Acad Sci USA 108: 20838-20843 (2011). This collection of mutants was made by mutagenizing a previously described pBD GAL-PYR1 template (Park, S.-Y., et al. Science 324, 1068-1071 ([…])). In response to ABA, this particular plasmid encodes a fusion protein that binds to a co-expressed GAL4 activation domain-HAB1 fusion protein, encoded by the plasmid pACT-HAB1. This binding reconstitutes a functional GAL4 transcriptional activator and subsequent transcription of a β-galactosidase reporter gene, which in turn enables colorimetric based detection of agonist promoted receptor-PP2C interaction when lysed cells are exposed to the substrate X-gal. The mutant clones were individually transformed into S. cerevisiae strain Y190 containing pACT-HAB1. Yeast transformants were selected for the presence of plasmids on synthetic dextrose (SD) agar plates lacking Leu and Trp (SD-LT) and examined for PP2C interactions by using X-gal staining to monitor β-gal reporter gene expression levels. Individual clones were arrayed into 96 well plates and then spotted onto SD-LT lawn (i.e. one-well) plates containing 0, 0.5 or 5.0 μM (+)-ABA. Each assay plate contained 95 mutant clones and one wild type PYR1 positive control clone. The spotted cells were cultured at 30° C. for 48 hours after which they were lysed by chloroform and stained with an X-gal solution, as previously described (Park, S.-Y., et al. (2009) Science 324, 1068-1071). […] After this initial screening exercise, all positives clones were retested on plates containing […] and stained for galactosidase activity as described above. Mutant clones showing detectable staining on 0.5 μM (+)-ABA or lower were scored as hypersensitive mutants. FIG. 1 depicts results of PYR1 mutant-HAB1 interactions as assayed in a yeast two-hybrid assay under different ABA concentrations, with darker spots indicating increased interaction.

[1] = previously measured, Dupeux et al. 2010; read-out: affinity of wild type PYR1 (Kd) measured using ITC; cited from earlier work
[2] = isothermal titration calorimetry (ITC) of receptor-ABA binding; conditions: 600 μM (+)-ABA injected into 60 μM receptor; PBS, 1 mM 2-mercaptoethanol, 0.012% DMSO; single binding site model
Text: The ligand sensitivity of PYR1 and HAB1 yeast two hybrid strains generally correlates with receptor affinity. To examine if this was the case for the hypersensitive mutations identified by our functional screens, we conducted isothermal titration calorimetry (ITC) to measure the heat produced by a mutant receptor-ABA binding reaction and infer the ligand binding dissociation constant (Kd). […] The PYR1-A160V mutant receptor was expressed in E. coli BL21(DE3) as a fusion to the small ubiquitin like protein SUMO, using the vector pSUMO (LifeSensors, USA), which improves the solubility of proteins in E. coli and contains an NH2-terminal hexa-histidine tag that facilitates purification using immobilized metal affinity chromatography (IMAC). PYR1 A160V was cloned into pSUMO by using PCR product generated from a pBD-PYR1(A160V) yeast two hybrid construct as template, and sequence validated. A short flexible linker and tobacco etch virus (TEV) protease cleavage site (sequence NH2-[…]-COOH; SEQ ID NO:411) was incorporated in between the SUMO tag and the receptor to enable cleavage of the recombinant protein by TEV protease, which yields PYR1(A160V) plus an NH2-terminal QS appendage. […]

Molecule	Minimal conc. For ABA response (HAB1)	Kd [1]	Kd [2]
WT: Arabidopsis wildtype PYR1 ABA receptor, SEQ ID NO:1 [reference compound]	1 µM	97 ± 36 µM	
B1	0.25 µM		1.5 µM
B2	0.5 µM		
B3	0.5 µM		
B4	0.25 µM		
B5	0.25 µM		
B6	0.25 µM		
B7	0.5 µM		
B8	0.5 µM		
B9	0.5 µM		
B10	0.5 µM		
B11	0.25 µM		
B12	0.25 µM		
B13	0.25 µM		
B14	0.25 µM		
B15	0.25 µM		
B16	0.25 µM		
B17	0.25 µM		
B18	0.25 µM		
